{"source": "patent US20110159021A1", "about": "(Dana-Farber, published 2011)", "binders": {"B1": {"name": "XBP1 110-118 (KLLLENQLL) (peptide)", "peptide": "KLLLENQLL", "notes": "Native peptide of non-spliced XBP1, synthetic; also called XBP1 #5 peptide"}, "B2": {"name": "XBP1 189-197 (ILAVLTLQI) (peptide)", "peptide": "ILAVLTLQI", "notes": "Native peptide of non-spliced XBP1, synthetic; also called XBP1 #3 peptide"}, "B3": {"name": "XBP1 184-192 (NISPWILAV) (peptide)", "peptide": "NISPWILAV", "notes": "Native peptide of non-spliced XBP1, synthetic; also called XBP1 #2 peptide; XBP1 #2p"}, "B4": {"name": "SP XBP1 367-375 (ELFPQLISV) (peptide)", "peptide": "ELFPQLISV", "notes": "Native peptide of spliced XBP1, synthetic; also called SP XBP1 #3 peptide; SP XBP1 #3p"}, "B5": {"name": "SP XBP1 196-204 (GILDNLDPV) (peptide)", "peptide": "GILDNLDPV", "notes": "also called SP XBP1 #1 peptide; SP XBP1 #1p"}, "B6": {"name": "CD138 260-268 (GLVGLIFAV) (peptide)", "peptide": "GLVGLIFAV", "notes": "Native peptide of CD138, synthetic; also called CD138 #2p; CD138 #2 peptide"}, "B7": {"name": "heteroclitic spliced XBP1 367-375 (YLFPQLISV) (peptide)", "peptide": "YLFPQLISV", "notes": "Heteroclitic variant of the spliced XBP1 367-375 peptide, synthetic; also called SP XBP1 #3M; XBP1 SP 3M"}}}
{"target": "T1, HLA-A2 molecules on the surface of human T2 cells (human)", "T1 construct": "MHC class I molecule that the peptides load onto; also called HLA-A2.1; HLA-A*0201", "test": "T2 peptide-binding assay; HLA-A2 up-regulation on T2 cells, flow cytometry"}
{"binder": "B1", "binding result": "binds"}
{"binder": "LLREKTHGL (also called XBP1 #1 peptide)", "note": "[XBP1 117-125 (LLREKTHGL)]", "binding result": "binds"}
{"binder": "B2", "binding result": "binds"}
{"target": "T1, HLA-A2 molecules on the surface of …", "test": "T2 peptide-binding assay; HLA-A2 up-regulation on T2 cells, 50 ug/ml peptide plus b2m, flow cytometry with FITC anti-HLA-A2 mAb", "units": {"MFI (HLA-A2 mean fluorescence intensity)": "MFI"}}
{"binder": "B3", "MFI (HLA-A2 mean fluorescence intensity)": 720}
{"binder": "B4", "MFI (HLA-A2 mean fluorescence intensity)": 785}
{"binder": "B5", "MFI (HLA-A2 mean fluorescence intensity)": 762}
{"binder": "B6", "MFI (HLA-A2 mean fluorescence intensity)": 690}
{"target": "T1, HLA-A2 molecules on the surface of …", "test": "T2 peptide-binding assay; HLA-A2 up-regulation on T2 cells, 50 ug/mL peptide plus b2m, flow cytometry with PE anti-HLA-A2 mAb"}
{"binder": "TLIYILWQL (Native peptide of CS1, synthetic)", "note": "[CS1-P4: CS1 9-17 (TLIYILWQL)]", "binding result": "binds"}
{"binder": "LLVPLLLSL (Native peptide of CS1, synthetic)", "note": "[CS1-P3: CS1 232-240 (LLVPLLLSL)]", "binding result": "binds"}
{"binder": "SLFVLGLFL (Native peptide of CS1, synthetic)", "note": "[CS1-P2: CS1 239-247 (SLFVLGLFL)]", "binding result": "binds"}
{"binder": "LLLSLFVLGL", "note": "[CS1-P1: CS1 236-245 (LLLSLFVLGL)]", "binding result": "binds"}
{"target": "T1, HLA-A2 molecules on the surface of …", "test": "peptide stability assay on T2 cells after Brefeldin A, flow cytometry with FITC anti-HLA-A2 mAb"}
{"binder": "B7", "binding result": "binds"}
